Data: US7687474B2, “Nitroreductase enzymes” (The Board of Trustees of the Leland Stanford Junior …, priority 2005, dated 2010)

Key:
SL 7838 = assay: Effect of prodrugs on the delivery strain SL 7838; details: CB 1954 15 μM
Description: We tested the S. typhimurium strain 7838 (SL 7838), transformed with different plasmids (see Methods), as a potential vehicle to attain this objective. IPTG was used to induce the wild type and mutant enzymes encoded by the plasmids. In these experiments, the prodrugs were activated by bacteria producing the specified enzymes instead of, as in previous experiments, the added enzymes.

HeLa cells [1] = details: for HeLa cell killing by CNOB: CNOB as prodrug, pure protein (FIG. 7)
HeLa cells [2] = assay: Confocal imaging of CNOB reduction in HeLa cells infected with SL 7838 expressing GFP and Y6; format: cell-based, Human; details: HeLa cells infected with SL 7838 expressing GFP and Y6 (FIG. 8)
ChrR = target: T1, ChrR (Escherichia coli, UniProt P0AGE6, E57D/G167S); format: biochemical, E. coli; details: CNOB versus CB 1954
T1 construct: made in house; host or cells: E. coli BL21 (DE3)
Description: To evaluate if CNOB competes with CB 1954 on the active site of the enzyme we performed a competition assay.

HeLa cells [3] = assay: Cell survival assay using SL 7838 to deliver the wild type or evolved enzymes; format: cell-based, Human; details: for amount of bacteria required / killing of surface-adhered HeLa-luc cells: SL 7838 expressing the enzyme, 15 μM CB 1954, 1 h + 3 h incubation, luciferase read-out (FIG. 6)
Description: Cell survival assay, using SL 7838 to deliver the wild type or evolved enzymes. SL 7838 contains deletions in the aroA and sopE genes. This strain is non-pathogenic in immunocompetent mice, but can colonize and persist in solid tumors. The strain was transformed with appropriate plasmids to express the yief (now chrR), nfsA or theY6 (now chrR6)-encoding yieFY6 gene. It was also transformed with a vector containing the lux operon, expressing the bacterial luciferase (product of the luxR gene) and its substrate. HeLa cells stably transfected to express firefly luciferase were added to black walled 96-well plates at a density of 1000 cells well^−1. Once the cells had attached, a dilution series of non-transformed SL 7838 or SL 7838 transformed with plasmids expressing the appropriate genes (Table 1) was added to the plates; 0.5 mM IPTG was added to induce the genes on the plasmids. After 1 h incubation, 15 μM CB 1954 was added. Light output per well produced from bacterial luciferase (no additional substrate added) or bacterial and firefly luciferase (following addition of 2 μl of 30 mg ml^−1 luciferin per well) was measured on an IVIS50 system (Xenogen Corp.). Percentage HeLa cell survival was determined by calculating firefly luciferase expression (total light output—bacterial light output) relative to wells containing unchallenged HeLa cells or HeLa cells treated with 70% ethanol. All experiments were performed at least in triplicate; error bars in the figures are SEM.
SL 7838 as a delivery vehicle to tumor cells. […] We tested the S. typhimurium strain 7838 (SL 7838), transformed with different plasmids (see Methods), as a potential vehicle to attain this objective. IPTG was used to induce the wild type and mutant enzymes encoded by the plasmids. […]
Further analysis was performed to test the efficiency of SL 7838 to deliver the enzymes to surface-adhered HeLa cells. […] After a further 3 h incubation period the firefly luciferase substrate (luciferin) was added, and the light output was used to quantify HeLa cell survival (FIG. 6).

HeLa cells [4] = assay: Viability test: prodrug activated by purified enzyme, loss of HeLa cell viability
Description: Viability tests. As mentioned in the Results section, these involved two incubation periods, prodrug activation, followed by assay of the toxic moiety generated by determining the loss of HeLa cell viability. […] Following prodrug reduction at 37° C., 0.5 ml of fresh HeLa cells (˜0.5-1×10^5) were added. The duration of the prodrug reduction was 30 min in all experiments; the HeLa cell exposure periods were as specified in the text. After the latter incubation, 20 μl of the color reagent, CellTiter 96®AqueousOne (PROMEGA Inc) were added to 100 μl aliquots of the reaction mixture. Following an additional 1 h of incubation, A490 was measured in a BioTek microplate S330 reader.
Prodrug activation by wild type YieF and the evolved enzymes. […] The experiments involved two incubation periods. In the first period, the enzyme and the drug were incubated to generate the toxic species; in the second period, which was initiated with the addition of HeLa cells to the reaction mixture, the extent of drug activation was inferred from the loss of HeLa cell viability. In the experiments described in this section, both the prodrug reduction and the subsequent cell exposure periods were of 30 min duration, and the enzyme and drug concentrations were 50 μg ml^−1 and 15 μM, respectively. […]

NC(=O)c1cc(N2CC2)c([N+](=O)[O-])cc1[N+](=O)[O-] [CB 1954, 5-aziridinyl-2,4-dinitrobenzamide]
effect on replication of SL7838 (SL 7838): did not inhibit replication

O=c1c(Cl)c2oc3cc([N+](=O)[O-])ccc3nc-2c2ccccc12 [CNOB]
prodrug efficiency in in vitro cytotoxicity assays (HeLa cells [1]; compared with CB1954): same efficiency as CB1954
bystander effect (red fluorescence in uninfected cells) (HeLa cells [2]): effective bystander effect
mode of inhibition in competition assay (ChrR): competitive inhibitors of each other

B1: Y6: evolved YieF enzyme with four substitutions: V120A, Y128N, T160N and Q175L (protein, UniProt P0AGE6 1-188, looked up, variant V120A Y128N T160N Q175L)
Quinone reductase: MSEKLQVVTLLGSLRKGSFNGMVARTLPKIAPASMEVNALPSIADIPLYDADVQQEEGFPATVEALAEQIRQADGVVIVTPEYNYSVPGGLKNAIDWLSRLPDQPLAGKPVLIQTSSMGAIGGARCQNHLRQILVFLDAMVMNKPEFMGGVIQNKVDPQNGEVIDQGTLDHLTGLLTAFGEFIQRVKI
amount of bacteria required / killing of surface-adhered HeLa-luc cells (HeLa cells [3]): at least an order of magnitude less bacteria
reduction in survival of HeLa cells (HeLa cells [3]; in the presence of CB 1954 (15 μM), enzyme expressed by SL 7838 bacteria, IPTG induced (FIG. 5)): 90%
greater reduction in HeLa cells survival compared to the controls (HeLa cells [4]; 15 μM MMC or CB 1954, 50 μg ml^−1 enzyme (FIG. 1)): ~90%
activity for prodrug reduction relative to wild type (HeLa cells [4]; MMC or CB 1954 (FIG. 1)): improved activity for prodrug reduction
HeLa cell killing by CNOB (HeLa cells [1]): more active

B2: YieF: native E. coli NAD(P)H oxidoreductase ChrR (formerly called YieF), SEQ ID NO:1 (protein)
chain: MSEKLQVVTLLGSLRKGSFNGMVARTLPKIAPASMEVNALPSIADIPLYDADVQQEDGFPATVEALAEQIRQADGVVIVTPEYNYSVPGGLKNAIDWLSRLPDQPLAGKPVLIQTSSMGVIGGARCQYHLRQILVFLDAMVMNKPEFMGGVIQNKVDPQTGEVIDQSTLDHLTGQLTAFGEFIQRVKI
modifications: E. coli
amount of bacteria required / killing of surface-adhered HeLa-luc cells (HeLa cells [3]): scarcely greater than seen in controls
HeLa cell killing by CNOB (HeLa cells [1]): significant increase of cell killing compared to the control
